Drawing on article PMC2946813, this text covers Kd for one substance.

This test deals with human factor Xa (human) (UniProt P00742). In words: prothrombinase activity titration.
UniProt P00742, sequence (P00742 41-179, chain 1 of 2): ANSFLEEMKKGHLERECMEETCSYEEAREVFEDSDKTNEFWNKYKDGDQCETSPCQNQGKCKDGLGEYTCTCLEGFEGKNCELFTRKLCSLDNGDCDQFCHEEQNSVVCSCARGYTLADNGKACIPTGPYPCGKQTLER
UniProt P00742, sequence (P00742 235-488, chain 2 of 2): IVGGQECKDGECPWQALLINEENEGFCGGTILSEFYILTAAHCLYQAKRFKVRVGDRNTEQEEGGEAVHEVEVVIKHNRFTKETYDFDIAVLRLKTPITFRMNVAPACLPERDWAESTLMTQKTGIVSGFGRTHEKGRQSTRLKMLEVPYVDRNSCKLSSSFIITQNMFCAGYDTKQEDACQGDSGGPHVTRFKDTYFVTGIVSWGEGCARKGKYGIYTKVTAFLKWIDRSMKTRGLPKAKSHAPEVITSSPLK

Usually Kd stands for the constant that tells how readily two partners part at equilibrium. A lower Kd goes with tighter binding. “plasma-derived human factor V activated with α-thrombin (from UniProt P12259 29-737) (natural protein)” displayed an equilibrium dissociation constant (Kd) of 0.67 nM.
